Numbered stars: 1 amine (or outer) side, 2 acyl side, 3 side chain; on linkers, the order of the positions; unused ones are H or OH. Bridge positions count the residues as written; N and C are the ends. Side chains are listed from the residue outwards. Ends that are not written are not given here. * marks the point of attachment. C20 diacid = O=C(O)CCCCCCCCCCCCCCCCCCC(=O)*; γGlu = O=C(O)[C@H](CCC(=O)[*:2])N[*:1]

Experimental findings from patent publication US20140087995A1 (published 2014) are described below.

In assay [1] the target is T1, human amylin receptor (amylin 3(a) receptor: human calcitonin receptor plus RAMP-3) (human, UniProt P30988 25-474; O60896 24-148, limits assumed).
T1 sequence (looked up) 1: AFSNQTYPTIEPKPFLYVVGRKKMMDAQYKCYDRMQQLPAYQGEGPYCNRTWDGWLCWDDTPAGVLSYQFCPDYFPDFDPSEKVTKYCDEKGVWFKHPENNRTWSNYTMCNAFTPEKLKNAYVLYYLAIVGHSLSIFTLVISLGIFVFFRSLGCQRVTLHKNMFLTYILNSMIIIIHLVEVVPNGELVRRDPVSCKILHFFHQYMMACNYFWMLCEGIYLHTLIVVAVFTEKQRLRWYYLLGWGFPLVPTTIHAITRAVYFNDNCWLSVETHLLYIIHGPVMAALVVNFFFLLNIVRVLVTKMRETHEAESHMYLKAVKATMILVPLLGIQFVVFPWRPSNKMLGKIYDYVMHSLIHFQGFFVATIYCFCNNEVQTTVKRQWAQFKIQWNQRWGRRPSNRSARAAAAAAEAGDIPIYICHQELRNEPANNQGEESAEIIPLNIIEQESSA
T1 sequence (looked up) 2: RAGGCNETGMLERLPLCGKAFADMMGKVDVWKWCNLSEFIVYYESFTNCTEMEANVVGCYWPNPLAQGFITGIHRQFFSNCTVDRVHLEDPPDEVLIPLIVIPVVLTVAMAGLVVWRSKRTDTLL
Nature of the assay: cell-based or functional assay.

Assay [2] addresses T2, human calcitonin receptor (human, UniProt P30988 25-474).
T2 sequence (looked up): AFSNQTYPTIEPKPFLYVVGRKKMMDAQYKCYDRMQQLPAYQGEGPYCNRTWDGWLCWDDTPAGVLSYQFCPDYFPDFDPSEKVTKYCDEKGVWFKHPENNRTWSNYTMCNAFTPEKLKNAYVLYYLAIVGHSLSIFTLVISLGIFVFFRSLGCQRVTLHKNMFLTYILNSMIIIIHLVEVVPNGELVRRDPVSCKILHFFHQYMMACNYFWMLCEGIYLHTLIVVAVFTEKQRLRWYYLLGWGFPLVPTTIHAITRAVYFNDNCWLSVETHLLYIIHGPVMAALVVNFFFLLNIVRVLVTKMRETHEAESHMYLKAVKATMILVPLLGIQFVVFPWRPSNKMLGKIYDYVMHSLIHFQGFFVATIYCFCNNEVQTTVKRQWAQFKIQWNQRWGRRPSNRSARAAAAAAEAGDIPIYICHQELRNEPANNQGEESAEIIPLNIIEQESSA
Briefly: cell-based or functional assay.

B1: N^ε1-[(4S)-4-carboxy-4-[[(4S)-4-carboxy-4-(19-carboxynonadecanoylamino)butanoyl]amino]butanoyl]-[Asp14,Arg17,Pro21,Pro27,Asp35]-h-amylin (peptide)
peptide: K([γGlu-γGlu-C20 diacid])CNTATCATQRLADFLRHSSPNFGAIPSSTNVGSDTY-NH2
modifications: disulfide 2-7; N-terminus assumed
SMILES: CC[C@H](C)[C@H](NC(=O)[C@H](C)NC(=O)CNC(=O)[C@H](Cc1ccccc1)NC(=O)[C@H](CC(N)=O)NC(=O)[C@@H]1CCCN1C(=O)[C@H](CO)NC(=O)[C@H](CO)NC(=O)[C@H](Cc1c[nH]cn1)NC(=O)[C@H](CCCNC(=N)N)NC(=O)[C@H](CC(C)C)NC(=O)[C@H](Cc1ccccc1)NC(=O)[C@H](CC(=O)O)NC(=O)[C@H](C)NC(=O)[C@H](CC(C)C)NC(=O)[C@H](CCCNC(=N)N)NC(=O)[C@H](CCC(N)=O)NC(=O)[C@@H](NC(=O)[C@H](C)NC(=O)[C@@H]1CSSC[C@H](NC(=O)[C@@H](N)CCCCNC(=O)CC[C@H](NC(=O)CC[C@H](NC(=O)CCCCCCCCCCCCCCCCCCC(=O)O)C(=O)O)C(=O)O)C(=O)N[C@@H](CC(N)=O)C(=O)N[C@@H]([C@@H](C)O)C(=O)N[C@@H](C)C(=O)N[C@@H]([C@@H](C)O)C(=O)N1)[C@@H](C)O)C(=O)N1CCC[C@H]1C(=O)N[C@@H](CO)C(=O)N[C@@H](CO)C(=O)N[C@H](C(=O)N[C@@H](CC(N)=O)C(=O)N[C@H](C(=O)NCC(=O)N[C@@H](CO)C(=O)N[C@@H](CC(=O)O)C(=O)N[C@H](C(=O)N[C@@H](Cc1ccc(O)cc1)C(N)=O)[C@@H](C)O)C(C)C)[C@@H](C)O
notes: Synthetic acylated analogue of human amylin; also called compound 2
B1: in assay [1], the “Ratio hCT/hAmylin funct.” value stood at 16.4 ratio and the “hAmylin-R funct. EC50” value came to 182 pM. In assay [2], the “hCTR funct. EC50” value came to 3000 pM.

B2: N^ε1-[(4S)-4-carboxy-4-[[(4S)-4-carboxy-4-(19-carboxynonadecanoylamino)butanoyl]amino]butanoyl]-[Asp14,Arg17,Pro22,Pro26,Asp35]-h-amylin (peptide)
peptide: K([γGlu-γGlu-C20 diacid])CNTATCATQRLADFLRHSSNPFGAPLSSTNVGSDTY-NH2
modifications: disulfide 2-7; N-terminus assumed
SMILES: CC(C)C[C@H](NC(=O)[C@H](CCCNC(=N)N)NC(=O)[C@H](CCC(N)=O)NC(=O)[C@@H](NC(=O)[C@H](C)NC(=O)[C@@H]1CSSC[C@H](NC(=O)[C@@H](N)CCCCNC(=O)CC[C@H](NC(=O)CC[C@H](NC(=O)CCCCCCCCCCCCCCCCCCC(=O)O)C(=O)O)C(=O)O)C(=O)N[C@@H](CC(N)=O)C(=O)N[C@@H]([C@@H](C)O)C(=O)N[C@@H](C)C(=O)N[C@@H]([C@@H](C)O)C(=O)N1)[C@@H](C)O)C(=O)N[C@@H](C)C(=O)N[C@@H](CC(=O)O)C(=O)N[C@@H](Cc1ccccc1)C(=O)N[C@@H](CC(C)C)C(=O)N[C@@H](CCCNC(=N)N)C(=O)N[C@@H](Cc1c[nH]cn1)C(=O)N[C@@H](CO)C(=O)N[C@@H](CO)C(=O)N[C@@H](CC(N)=O)C(=O)N1CCC[C@H]1C(=O)N[C@@H](Cc1ccccc1)C(=O)NCC(=O)N[C@@H](C)C(=O)N1CCC[C@H]1C(=O)N[C@@H](CC(C)C)C(=O)N[C@@H](CO)C(=O)N[C@@H](CO)C(=O)N[C@H](C(=O)N[C@@H](CC(N)=O)C(=O)N[C@H](C(=O)NCC(=O)N[C@@H](CO)C(=O)N[C@@H](CC(=O)O)C(=O)N[C@H](C(=O)N[C@@H](Cc1ccc(O)cc1)C(N)=O)[C@@H](C)O)C(C)C)[C@@H](C)O
notes: Synthetic acylated analogue of human amylin; also called compound 3
For B2, in assay [1], the “Ratio hCT/hAmylin funct.” value worked out at 6.7 ratio and the “hAmylin-R funct. EC50” value turned out to be 205 pM. Moreover, the “hCTR funct. EC50” value in assay [2] was 1380 pM.

B3: N{Alpha-1}-[(4S)-4-carboxy-4-(19-carboxynonadecanoylamino)butanoyl]-[Glu14,Arg17,Pro21,Pro27,Lys34]-h-amylin (peptide)
peptide: {C20 diacid-γGlu}-KCNTATCATQRLAEFLRHSSPNFGAIPSSTNVGKNTY-NH2
modifications: disulfide 2-7
SMILES: CC[C@H](C)[C@H](NC(=O)[C@H](C)NC(=O)CNC(=O)[C@H](Cc1ccccc1)NC(=O)[C@H](CC(N)=O)NC(=O)[C@@H]1CCCN1C(=O)[C@H](CO)NC(=O)[C@H](CO)NC(=O)[C@H](Cc1c[nH]cn1)NC(=O)[C@H](CCCNC(=N)N)NC(=O)[C@H](CC(C)C)NC(=O)[C@H](Cc1ccccc1)NC(=O)[C@H](CCC(=O)O)NC(=O)[C@H](C)NC(=O)[C@H](CC(C)C)NC(=O)[C@H](CCCNC(=N)N)NC(=O)[C@H](CCC(N)=O)NC(=O)[C@@H](NC(=O)[C@H](C)NC(=O)[C@@H]1CSSC[C@H](NC(=O)[C@H](CCCCN)NC(=O)CC[C@H](NC(=O)CCCCCCCCCCCCCCCCCCC(=O)O)C(=O)O)C(=O)N[C@@H](CC(N)=O)C(=O)N[C@@H]([C@@H](C)O)C(=O)N[C@@H](C)C(=O)N[C@@H]([C@@H](C)O)C(=O)N1)[C@@H](C)O)C(=O)N1CCC[C@H]1C(=O)N[C@@H](CO)C(=O)N[C@@H](CO)C(=O)N[C@H](C(=O)N[C@@H](CC(N)=O)C(=O)N[C@H](C(=O)NCC(=O)N[C@@H](CCCCN)C(=O)N[C@@H](CC(N)=O)C(=O)N[C@H](C(=O)N[C@@H](Cc1ccc(O)cc1)C(N)=O)[C@@H](C)O)C(C)C)[C@@H](C)O
notes: Synthetic acylated analogue of human amylin; also called compound 36
B3: in assay [1], the “Ratio hCT/hAmylin funct.” value worked out at 6.8 ratio and the “hAmylin-R funct. EC50” value stood at 189 pM. The “hCTR funct. EC50” value in assay [2] worked out at 1280 pM.
